From the supplement of paper PMC10567573

B1: EPB41L3 (parent)
chain: FRFAPNHTKELEDKVIELHKSHRG

Variants of: B1
Assay: protein stability index of a GFP-peptide fusion (GPS, HEK-293T) (PSI 1-6); higher = more stable
Settings: c terminus: a fixed tail appended
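Further: lentivirally expressed fusions sorted by FACS into six bins by GFP to DsRed ratio, PSI derived from sequencing read proportions per bin multiplied by bin number.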

First: FRFMPNHTKELEDKVIELHKSHRG
Second: FRFAPNHTKELEDKVIELHKTHRG
The protein stability index of the first is higher: 2.65 for the first, 2.47 for the second.

Compared with FRFAPNHTKELEDKVIELHKYHRG, FRFAPNHTKELEDKVIELHKAHRG is higher in protein stability index: 2.4 for the first, 2.47 for the second.

Going from FRFAPNHTKELEDKVIELHKMHRG to FRFAPNHTKELEDKVIELHKFHRG, the protein stability index falls from 2.14 to 1.78.

Going from FRFAPNHTKELEDKVIELHKGHRG to FRFAPNHTKELEDKVIELHKCHRG, the protein stability index falls from 2.42 to 1.78.

Compared with FRFAPNHTKELEDKVIELHKVHRG, FRFAPNHTKELEDKVIELHKWHRG is lower in protein stability index: 2.2 for the first, 1.41 for the second.

First: FRFAPNHTKELEDFVIELHKSHRG
Second: FRFAPNHTKELEDGVIELHKSHRG
The protein stability index of the first is lower: 1.8 for the first, 2.48 for the second.

Going from FRFAPNHTKELEDIVIELHKSHRG to FRFAPNHTKELEDHVIELHKSHRG, the protein stability index rises from 2.66 to 2.74.

Compared with FRFAPNHTKELEDVVIELHKSHRG, FRFAPNHTKELEDEVIELHKSHRG is higher in protein stability index: 2.2 for the first, 2.53 for the second.

Going from FRFAPNHTKELEDCVIELHKSHRG to FRFAPNHTKELEDKVIILHKSHRG, the protein stability index rises from 1.89 to 2.21.

Going from FRFAPNHTKELEDKVIPLHKSHRG to FRFAPNHTKELEDKVITLHKSHRG, the protein stability index falls from 2.43 to 1.86.

First: FRFAPNHTKELEDKVIWLHKSHRG
Second: FRFAPNHTKELEDKVIALHKSHRG
The protein stability index of the first is higher: 2.18 for the first, 1.74 for the second.

Compared with FRFAPNHTKELEDKVINLHKSHRG, FRFAPNHTKELEDKVIVLHKSHRG is higher in protein stability index: 2.29 for the first, 2.55 for the second.

Compared with IRFAPNHTKELEDKVIELHKSHRG, RRFAPNHTKELEDKVIELHKSHRG is higher in protein stability index: 2.69 for the first, 4.41 for the second.

Compared with ERFAPNHTKELEDKVIELHKSHRG, TRFAPNHTKELEDKVIELHKSHRG is lower in protein stability index: 4.2 for the first, 4.12 for the second.

First: CRFAPNHTKELEDKVIELHKSHRG
Second: WRFAPNHTKELEDKVIELHKSHRG
The protein stability index of the first is higher: 2.93 for the first, 2.26 for the second.

First: ARFAPNHTKELEDKVIELHKSHRG
Second: VRFAPNHTKELEDKVIELHKSHRG
The protein stability index of the first is higher: 4.17 for the first, 3.08 for the second.

Going from FRFAPNHTKELEAKVIELHKSHRG to FRFAPNHTKELEPKVIELHKSHRG, the protein stability index falls from 1.82 to 1.78.

First: FRFAPNHTKELEFKVIELHKSHRG
Second: FRFAPNHTKELEVKVIELHKSHRG
The protein stability index of the first is higher: 1.52 for the first, 1 for the second.

Going from FRFAPNHTKELEIKVIELHKSHRG to FRFAPNHTKELESKVIELHKSHRG, the protein stability index falls from 2.9 to 2.14.

First: FRFAPNHTKELERKVIELHKSHRG
Second: FRFAPNHTKELEYKVIELHKSHRG
The protein stability index of the first is higher: 2.77 for the first, 1.95 for the second.

Compared with FRFAPNHTKELEDKVIELHTSHRG, FRFAPNHTKELEDKVIELHCSHRG is lower in protein stability index: 2.12 for the first, 2.09 for the second.

Going from FRFAPNHTKELEDKVIELHDSHRG to FRFAPNHTKELEDKVIELHESHRG, the protein stability index rises from 1.96 to 2.84.

Compared with FRFAPNHTKELEDKVIELHRSHRG, FRFAPNHTKELEDKVIELHLSHRG is higher in protein stability index: 1.39 for the first, 2.81 for the second.

First: FRFAPNHTKELEDKVIELHQSHRG
Second: FRFAPNHTKELEDKVIELHNSHRG
The protein stability index of the first is lower: 1.29 for the first, 2.57 for the second.

Going from FRFAPNHTKELEDKVIELHASHRG to FRFAPNHTKELEDKVIELHYSHRG, the protein stability index rises from 2.29 to 2.95.

Compared with FRFAPNHTKELEDKVIELHPSHRG, FRFAPNHTKELEDKVIELHWSHRG is lower in protein stability index: 2.64 for the first, 1.54 for the second.

Going from FRFAPNHTKELEDKVIELHSSHRG to FRFAPNHTKELEDKVIELHHSHRG, the protein stability index rises from 1.67 to 2.44.

First: FRFAPNHTKELCDKVIELHKSHRG
Second: FRFAPNHTKELQDKVIELHKSHRG
The protein stability index of the first is lower: 1.83 for the first, 2.09 for the second.

Compared with FRFAPNHTKELGDKVIELHKSHRG, FRFAPNHTKELFDKVIELHKSHRG is lower in protein stability index: 2.33 for the first, 2.17 for the second.

Compared with FRFAPNHTKELMDKVIELHKSHRG, FRFAPNHTKELHDKVIELHKSHRG is higher in protein stability index: 1.75 for the first, 2.34 for the second.

First: FRFAPNHTKELEDKVKELHKSHRG
Second: FRFAPNHTKELEDKVDELHKSHRG
The protein stability index of the first is lower: 2.1 for the first, 3.22 for the second.

Compared with FRFAPNHTKELEDKVYELHKSHRG, FRFAPNHTKELEDKVFELHKSHRG is lower in protein stability index: 2.43 for the first, 1.77 for the second.

Compared with FRFAPNHTKELEDKVTELHKSHRG, FRFAPNHTKELEDKVNELHKSHRG is higher in protein stability index: 2.27 for the first, 2.42 for the second.

Going from FRFAPNHTKEKEDKVIELHKSHRG to FRFAPNHTKEQEDKVIELHKSHRG, the protein stability index falls from 2.53 to 2.25.

First: FRFAPNHTKEYEDKVIELHKSHRG
Second: FRFAPNHTKEAEDKVIELHKSHRG
The protein stability index of the first is higher: 2.05 for the first, 1.54 for the second.

Compared with FRFAPNHTKEVEDKVIELHKSHRG, FRFAPNHTKEMEDKVIELHKSHRG is lower in protein stability index: 2.25 for the first, 1.83 for the second.

Compared with FRFAPNHTKEFEDKVIELHKSHRG, FRFAPNHTKEHEDKVIELHKSHRG is lower in protein stability index: 2.48 for the first, 2.29 for the second.

Going from FRFAPNHTKEGEDKVIELHKSHRG to FRFAPNHTKENEDKVIELHKSHRG, the protein stability index falls from 2.89 to 1.65.

First: FRFAPNHTKELEDKVIELTKSHRG
Second: FRFAPNHTKELEDKVIELEKSHRG
The protein stability index of the first is lower: 1.81 for the first, 2.72 for the second.

Compared with FRFAPNHTKELEDKVIELCKSHRG, FRFAPNHTKELEDKVIELMKSHRG is higher in protein stability index: 2.03 for the first, 2.05 for the second.

Compared with FRFAPNHTKELEDKVIELDKSHRG, FRFAPNHTKELEDKVIELQKSHRG is higher in protein stability index: 2.07 for the first, 2.66 for the second.

First: FRFAPNHTKELEDKVIELLKSHRG
Second: FRFAPNHTKELEDKVIELYKSHRG
The protein stability index of the first is higher: 2.12 for the first, 1.88 for the second.

Compared with FRFAPNHTKELEDKVIELHKSYRG, FRFAPNHTKELEDKVIELHKSERG is lower in protein stability index: 2.96 for the first, 2.52 for the second.

Compared with FRFAPNHTKELEDKVIELHKSCRG, FRFAPNHTKELEDKVIELHKSTRG is lower in protein stability index: 1.95 for the first, 1.76 for the second.

First: FRFAPNHTKELEDKVIELHKSFRG
Second: FRFAPNHTKELEDKVIELHKSNRG
The protein stability index of the first is lower: 1.92 for the first, 2.34 for the second.

Going from FRFAPNHTKELEDKVIELHKSVRG to FRFAPNHTKELEDKVIELHKSSRG, the protein stability index rises from 1.67 to 2.4.

Going from FRFAPNHTKELEDKVIELHKSGRG to FRFAPNHTKELEDKVIELHKSWRG, the protein stability index falls from 1.91 to 1.65.
